Reference: article PMC6437151

Tests used:
FBXW2 [1] = biological target: FBXW2 (UniProt Q9UKT8); assay: co-transfection, HA IP, immunoblot; settings: reference: wild type; sites S552
FBXW2 [2] = biological target: FBXW2 (UniProt Q9UKT8); assay: IP with FBXW2 antibody, immunoblot; settings: reference: wild type; sites S552

## β-catenin (from UniProt P35222) S552A
FBXW2 [1]
  binding against the reference: lost
FBXW2 [2]
  binding against the reference: lost
